The results in this text go back to patent publication US20180215825A1 (BEIGENE, published 2018).

Changes are numbered by the printed parent chain.

In assay [1] the target is T1, human PD-L1, full length, expressed on cells (human, UniProt Q9NZQ7 19-290).
T1 construct: also called HEK293/PD-L1 cells; HEK293/OS8/PD-L1 cells
The assay is described as follows: FACS on HEK293/PD-L1 cells. How it is done:
FACS binding analysis was performed as described in previous sections.

Assay [2] addresses T1, human PD-L1, full length, expressed on …. The assay is described as follows: cell-based or functional assay.
The target is the same in assay [3]. The assay is described as follows: FACS competition with CD80/Fc on HEK293/PD-L1 cells.
A further assay addresses T2, human C1q (human, UniProt P02745 23-245; P02746 28-253; P02747 29-245).
T2 construct: Bought (Cat. No. A400, Quidel); also called complement component C1q
The assay is described as follows: ELISA: antibody coated on the plate at the x-axis concentration, human C1q added (2 µg/mL), bound C1q detected with an anti-C1q mAb. On the procedure:
The ELISA-based C1q binding assay was done by conventional ELISA method with minor modification. […] After blocking and washing, the wells were incubated with 2 μg/mL of human C1q (Cat. No. A400, Quidel, San Diego, USA) at room temperature for 2 hours.
(In general: An ELISA detects its analyte on a solid surface through an enzyme-linked reagent.)

Assay [4] concerns the target T1, human PD-L1, full length, expressed on …. The assay is described as follows: FACS competition with PD-1/Fc on HEK293/PD-L1 cells.
Assay [5] addresses T3, human FcγRIIAR131 expressed on HEK293 cells (human, UniProt P12318 34-317).
T3 construct: whole, on cells
T3 sequence (looked up): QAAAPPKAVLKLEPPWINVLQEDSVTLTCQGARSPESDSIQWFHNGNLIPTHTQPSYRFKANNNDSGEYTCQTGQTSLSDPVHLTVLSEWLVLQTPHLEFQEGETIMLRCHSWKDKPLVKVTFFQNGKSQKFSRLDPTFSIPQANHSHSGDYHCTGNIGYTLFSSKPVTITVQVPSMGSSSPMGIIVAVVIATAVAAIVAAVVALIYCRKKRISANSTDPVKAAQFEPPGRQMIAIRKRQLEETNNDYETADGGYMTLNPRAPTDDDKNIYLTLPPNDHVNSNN
The assay is described as follows: FACS, monomeric mAb on FcγR-expressing HEK293 cells. How it is done: (§1) Bindings of humanized anti-PD-L1 in various IgG1 formats (wt, IgG1mc, IgG1mf, SEQ. NO. 27-29) to FcγRs were also determined by flow cytometry. In brief, a series of stable HEK293 transfectants expressing human FcγRs were established. These stable cell lines expressed FcγRI, FcγRIIAH131, FcγRIIAR131, FcγRIIB, FcγRIIIAF158 or FcγRIIIAV158, respectively. Multi-subunit FcγRs (i.e., FcγRI and FcγRIIIA) were co-expressed with FcRγ subunit.
For orientation: In flow cytometry, cells or beads pass a laser one at a time.

The target in assay [6] is T4, human FcγRIIB expressed on HEK293 cells (human, UniProt P31994 43-310).
T4 construct: whole, on cells
T4 sequence (looked up): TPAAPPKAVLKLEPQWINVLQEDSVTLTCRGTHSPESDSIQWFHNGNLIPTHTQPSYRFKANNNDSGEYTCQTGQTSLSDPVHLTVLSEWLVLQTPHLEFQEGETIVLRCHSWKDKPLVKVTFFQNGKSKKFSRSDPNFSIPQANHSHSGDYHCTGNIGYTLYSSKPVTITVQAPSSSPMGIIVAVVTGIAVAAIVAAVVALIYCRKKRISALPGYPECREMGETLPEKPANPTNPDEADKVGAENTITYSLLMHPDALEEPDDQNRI
The description is as above. How it is done:
as §1

Assay [7] has as its target T5, human FcγRIIIAV158 expressed on cells (human, UniProt P08637 17-254).
T5 construct: whole, on cells; Co-expressed with FcRγ subunit; on HEK293 cells in the FACS assays, on NK92MI/CD16V cells in the ADCC assay; also called CD16 (V158 allele)
The assay is described as above. How it is done: as §1

For assay [8], the target named is T6, human FcγRI expressed on HEK293 cells (human, UniProt P12314 16-374).
T6 construct: whole, on cells; Co-expressed with FcRγ subunit
Described as above. How it is done:
as §1

Assay [9] has as its target T7, human FcγRIIAH131 expressed on HEK293 cells (human, UniProt P12318 34-317).
T7 construct: whole, on cells
T7 sequence (looked up): T3 sequence (looked up) with R134H
The assay is described as above. On the procedure:
as §1

Assay [10] concerns the target T8, human FcγRIIIAF158 expressed on HEK293 cells (human, UniProt P08637 17-254).
T8 construct: whole, on cells; Co-expressed with FcRγ subunit
The assay is described as above. On the procedure: as §1

The term EC50 denotes the concentration that produces a half-maximal response. What is called IC50 is the concentration that inhibits the measured activity by half.

T1 sequence (Q9NZQ7 19-290 limits assumed): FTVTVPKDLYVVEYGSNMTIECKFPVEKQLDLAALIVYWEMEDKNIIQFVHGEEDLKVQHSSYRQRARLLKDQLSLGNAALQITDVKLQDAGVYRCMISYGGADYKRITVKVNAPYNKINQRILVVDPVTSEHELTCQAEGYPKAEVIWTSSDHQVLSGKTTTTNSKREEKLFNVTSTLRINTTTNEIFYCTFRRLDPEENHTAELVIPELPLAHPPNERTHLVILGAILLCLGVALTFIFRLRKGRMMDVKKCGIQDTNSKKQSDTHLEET
T5 sequence (P08637 17-254 F176V limits assumed): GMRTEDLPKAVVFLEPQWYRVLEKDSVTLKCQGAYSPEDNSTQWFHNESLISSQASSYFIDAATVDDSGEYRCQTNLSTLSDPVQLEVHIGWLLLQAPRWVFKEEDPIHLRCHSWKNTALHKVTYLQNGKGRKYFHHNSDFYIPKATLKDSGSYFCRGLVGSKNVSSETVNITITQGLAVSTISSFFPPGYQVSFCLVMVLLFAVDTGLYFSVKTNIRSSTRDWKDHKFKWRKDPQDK
T6 sequence (P12314 16-374): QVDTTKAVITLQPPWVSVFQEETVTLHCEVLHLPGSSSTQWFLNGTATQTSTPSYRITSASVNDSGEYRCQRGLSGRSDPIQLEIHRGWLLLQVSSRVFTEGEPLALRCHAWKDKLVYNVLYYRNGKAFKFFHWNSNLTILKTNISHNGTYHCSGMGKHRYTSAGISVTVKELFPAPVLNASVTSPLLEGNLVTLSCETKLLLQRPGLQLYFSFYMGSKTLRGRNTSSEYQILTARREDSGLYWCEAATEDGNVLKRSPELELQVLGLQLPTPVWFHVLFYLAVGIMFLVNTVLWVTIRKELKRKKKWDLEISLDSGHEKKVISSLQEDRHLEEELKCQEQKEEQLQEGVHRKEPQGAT
T8 sequence (P08637 17-254): as the sequence (P08637 17-254 F176V limits assumed) above, with V160F counted along it
T2 sequence (P02745 23-245, chain 1 of 3): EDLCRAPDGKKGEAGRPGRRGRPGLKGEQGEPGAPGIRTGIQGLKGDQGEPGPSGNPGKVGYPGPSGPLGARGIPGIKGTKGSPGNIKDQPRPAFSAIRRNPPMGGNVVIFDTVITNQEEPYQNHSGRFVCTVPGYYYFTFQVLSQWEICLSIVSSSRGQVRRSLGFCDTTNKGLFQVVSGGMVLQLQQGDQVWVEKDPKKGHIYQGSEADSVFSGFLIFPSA
T2 sequence (P02746 28-253, chain 2 of 3): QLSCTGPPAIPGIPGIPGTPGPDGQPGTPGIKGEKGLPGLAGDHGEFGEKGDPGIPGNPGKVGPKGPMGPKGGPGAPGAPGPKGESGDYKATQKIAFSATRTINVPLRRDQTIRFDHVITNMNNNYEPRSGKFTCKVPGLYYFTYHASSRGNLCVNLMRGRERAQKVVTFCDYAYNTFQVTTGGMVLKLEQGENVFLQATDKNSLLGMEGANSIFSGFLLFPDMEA
T2 sequence (P02747 29-245, chain 3 of 3): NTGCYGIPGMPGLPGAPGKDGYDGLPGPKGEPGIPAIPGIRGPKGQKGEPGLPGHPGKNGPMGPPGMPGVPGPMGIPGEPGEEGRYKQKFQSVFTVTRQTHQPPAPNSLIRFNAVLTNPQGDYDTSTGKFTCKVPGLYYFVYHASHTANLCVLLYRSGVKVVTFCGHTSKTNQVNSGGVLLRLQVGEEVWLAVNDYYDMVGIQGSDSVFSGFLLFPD

B1: hu333-4B2-IgG1mc (antibody)
heavy: EVQLVESGGGLVQPGGSLRLSCAVSGFSLTSYGVHWVRQAPGKGLEWVAVIWAGGSTNYADSVKGRFTISKDTSKNTVYLQMNSLRAEDTAVYYCAKPYGTSAMDYWGQGTLVTVSSASTKGPSVFPLAPSSKSTSGGTAALGCLVKDYFPEPVTVSWNSGALTSGVHTFPAVLQSSGLYSLSSVVTVPSSSLGTQTYICNVNHKPSNTKVDKKVEPKSCDKTHTCPPCPAPPAAAPSVFLFPPKPKDTLMISRTPEVTCVVVDVSHEDPEVKFNWYVDGVEVHNAKTKPREEQYNSTYRVVSVLTVLHQDWLNGKEYKCKVSNKALAAPIEKTISKAKGQPREPQVYTLPPSRDELTKNQVSLTCLVKGFYPSDIAVEWESNGQPENNYKTTPPVLDSDGSFFLYSKLTVDKSRWQQGNVFSCSVMHEALHNHYTQKSLSLSPGK
light: DIQMTQSPSSLSASVGDRVTITCKASQDVGIVVAWYQQKPGKAPKLLIYWASIRHTGVPSRFSGSGSGTEFTLTISSLQPDDFATYYCQQYSNYPLYTFGQGTKVEIKRTVAAPSVFIFPPSDEQLKSGTASVVCLLNNFYPREAKVQWKVDNALQSGNSQESVTEQDSKDSTYSLSSTLTLSKADYEKHKVYACEVTHQGLSSPVTKSFNRGEC
In assay [1], B1 displayed an EC50 of 0.092 µg/mL. Further, the “Top MFI” value in [1] was 1390 MFI. In [2], the “IL-2 release in HuT78/P3Z: IC50” value was 0.039 µg/mL. For the same molecule, the “IL-2 release in HuT78/P3Z: Max inhibition” value in [2] stood at 99%. In addition, in assay [2], the “IL-2 release in HuT78/PD-1: EC50” value amounted to 0.084 µg/mL. Also, the “IL-2 release in HuT78/PD-1: Top line” value in assay [2] worked out at 300 pg/mL. Further, the 50% inhibitory concentration (IC50) in [3] came to 0.103 µg/mL; in [4] it was 0.167 µg/mL. The Max inhibition in assay [3] and in assay [4] was 100% throughout. Also, in the assay with human C1q, the binding result is listed as “no binding (tested: about 20 µg/ml (coating concentration))”. The MFI in assay [5] came to 3.64 MFI; in assay [6], 4.49 MFI; in assay [7], 4.14 MFI; in assay [8], 4.78 MFI; in [9] it was 6.16 MFI; in [10] it was 5.42 MFI.

B2: hu333-4B2-IgG1mf (antibody)
heavy: B1 heavy with A236G
light: B1 light
With B2, in [1], the EC50 was found to be 0.102 µg/mL. In addition, the “Top MFI” value in assay [1] is 1340 MFI. The “IL-2 release in HuT78/P3Z: IC50” value in [2] worked out at 0.037 µg/mL. Further, in assay [2], the “IL-2 release in HuT78/P3Z: Max inhibition” value stood at 99%. The “IL-2 release in HuT78/PD-1: EC50” value in [2] is 0.075 µg/mL. For the same molecule, the “IL-2 release in HuT78/PD-1: Top line” value in assay [2] was determined as 287 pg/mL. Moreover, the IC50 in [3] amounted to 0.118 µg/mL; in [4], 0.174 µg/mL. Besides, the Max inhibition in assay [3] and in assay [4] was 100% in each case. In the assay with human C1q, the binding result is “no binding (tested: about 20 µg/ml (coating concentration))”. The MFI in [5] was 3.99 MFI; in [6], 3.73 MFI; in assay [7], 3.91 MFI; in assay [8], 4.56 MFI; in assay [9], 6.12 MFI; in [10], 5.09 MFI.

B3: hu333-4A2-IgG1mc (antibody)
heavy: B1 heavy with A60V, T73N, S74A
light: B1 light
In turn, B3 yielded an EC50 in [1] of 0.098 µg/mL. For the same molecule, the “Top MFI” value in assay [1] was found to be 1360 MFI. The “IL-2 release in HuT78/P3Z: IC50” value in assay [2] was determined as 0.045 µg/mL. Besides, the “IL-2 release in HuT78/P3Z: Max inhibition” value in assay [2] is 99%. In addition, the “IL-2 release in HuT78/PD-1: EC50” value in [2] came to 0.087 µg/mL. Besides, in assay [2], the “IL-2 release in HuT78/PD-1: Top line” value is 299 pg/mL. Moreover, the IC50 worked out at 0.078 µg/mL in assay [3] and 0.172 µg/mL in assay [4]. Moreover, the Max inhibition in assay [3] and in assay [4] was 100% each time. Also, in the assay with human C1q, the binding result is recorded as “no binding (tested: about 20 µg/ml (coating concentration))”. Besides, the MFI in assay [5] came out at 3.8 MFI; in [6] it was 3.71 MFI; in assay [7], 3.87 MFI; in assay [8], 4.29 MFI; in assay [9], 5.78 MFI; in [10], 5.2 MFI.

B4: hu333-4A2-IgG1wt (antibody)
heavy: not shown
VL: DIQMTQSPSSLSASVGDRVTITCKASQDVGIVVAWYQQKPGKAPKLLIYWASIRHTGVPSRFSGSGSGTEFTLTISSLQPDDFATYYCQQYSNYPLYTFGQGTKVEIK
notes: light chain constant region (kappa) not tied to an entry for this form
Regarding B4, in the assay with human C1q, the binding result was “binds”. In addition, the MFI in [5] was 15.1 MFI; in [6], 19 MFI; in assay [7], 91.7 MFI; in assay [8], 1170 MFI; in assay [9] it was 40.5 MFI; in assay [10], 29.4 MFI.
